Data reported in patent US20250074988A1.

Target: recombinant human PD-L1 protein (Item No. 10084-H08H, Sino Biological) (human) (UniProt Q9NZQ7)
Assay: SPR, Biacore 8K, antibody captured on anti-human chip, huPD-L1 analyte, 1:1 model

Chain of recombinant human PD-L1 protein (Item No. 10084-H08H, Sino Biological) (human) (Q9NZQ7 19-238 limits assumed): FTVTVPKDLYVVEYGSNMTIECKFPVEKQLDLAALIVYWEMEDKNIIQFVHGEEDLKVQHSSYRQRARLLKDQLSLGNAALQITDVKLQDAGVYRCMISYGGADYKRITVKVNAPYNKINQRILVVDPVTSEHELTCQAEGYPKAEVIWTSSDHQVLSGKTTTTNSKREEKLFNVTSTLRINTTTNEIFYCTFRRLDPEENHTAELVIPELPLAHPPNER

Kd: 0.359 nM
koff: 0.00203 s⁻¹
kon: 5.65e+06 M⁻¹ s⁻¹
Substance: MDX 1105 (antibody)
